# Assay results taken from PMC9490040, “Mechanistic insight into the RNA-stimulated ATPase activity of tick-borne encephalitis virus helicase”.
# Target: NS3H (NS3 helicase domain) WT (Tick-borne encephalitis virus strain …, UniProt Q01299 1662-2110)
# Test: fluorescence anisotropy; 1 mM Mg2+; no nucleotide; apparent KD; 20 mM Tris-HCl pH 7.5, 100 mM NaCl, 1 mM MgCl2, 7.5% glycerol; 45 min at 30 C; […]
# Settings: protein: recombinant; tags: N-terminal 10xHis (pET-19b); label: 5' 6-FAM; single strand
# Sequence of NS3H (NS3 helicase domain) WT (Q01299 1662-2110): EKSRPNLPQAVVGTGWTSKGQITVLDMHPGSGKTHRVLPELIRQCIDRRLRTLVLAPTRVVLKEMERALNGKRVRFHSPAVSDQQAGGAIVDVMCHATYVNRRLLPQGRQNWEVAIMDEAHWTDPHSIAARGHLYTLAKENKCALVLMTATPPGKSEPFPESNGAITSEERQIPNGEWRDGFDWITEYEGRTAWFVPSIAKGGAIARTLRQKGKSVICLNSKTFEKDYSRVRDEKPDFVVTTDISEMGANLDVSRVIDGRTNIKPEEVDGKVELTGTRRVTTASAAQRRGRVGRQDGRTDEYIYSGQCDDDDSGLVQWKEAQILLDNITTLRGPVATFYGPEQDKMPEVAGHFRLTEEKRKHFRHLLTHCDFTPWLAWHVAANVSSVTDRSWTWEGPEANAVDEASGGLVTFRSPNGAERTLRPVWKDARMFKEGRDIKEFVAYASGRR
binder,measurement,value
AGAUUUUCUUGC (ssRNA) [6-FAM-ssRNA12],Kd,49.7 ± 9.3 nM
